# According to the supplement of paper PMC9170038:
# Test system: MS2 coat protein
# Assay: apparent KD of MS2 coat protein; designed switch direction (-1 OFF switch, 1 ON switch): -1; higher = weaker reporter binding
# Outline: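 Transcription of designed RNA switches on Illumina chips was done by stalled E. coli RNA polymerase. SNAP-549-labelled MS2 coat protein was then titrated in doubling steps from 0.7 or 1.5 nM to 3 µM, with steps of 0.8–1.5 h at the lowest and 10–20 min at the highest concentration. The per-design median over clusters of curve-fitted normalised fluorescence is reported as apparent KD.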
# [1] = Eterna round: R95, input ligand: microRNA oligo, concentration not stated
# [2] = input ligand: microRNA oligo, concentration not stated
# [3] = Eterna round: R95, input ligand: FMN 200 uM
# [4] = Eterna round: R95, input ligand: none
Sequence,apparent KD of MS2 coat protein [1] [nM],apparent KD of MS2 coat protein (input ligand: FMN 200 uM) [nM],apparent KD of MS2 coat protein [2] [nM],apparent KD of MS2 coat protein (input ligand: none) [nM],apparent KD of MS2 coat protein [3] [nM],apparent KD of MS2 coat protein [4] [nM]
AAAAAACAAGGAUAUACGCAGGAGGGUUGUCUUAAUUUUUGACAUGAGGAUCACCCAUGUAGAAGGUGUUAAAA [JR_Exclusion2_Sub013] (puzzle: Exclusion 2),220,,,,,
"AAAAAACAUGAGGAUCACCCAUGUGAGGAUAUCUGUAUUCAAUCCUCGGAUUGAAUACAGAGAAGGCACAUGGG [Ex1: 609] (Eterna round: R96, puzzle: Exclusion 1)",,48.5,29.2,27.8,,
AAAAAGCGAGGAUAUGCAUAAGGACCCGGGAGGGAAGUCGAACAUGAGGAUCACCCAUGUAGAAGGCGCAAAAA [Exclss2-IV] (puzzle: Exclusion 2),11.5,,,,16,15.4
AAAAAGGUAGGAUAUACGAAAAAAAAGGGUAGAAAAAAAACACAUGAGGAUCACCCAUGUAGAAGGACCAAAAC [salish99_ex2_r3_046] (puzzle: Exclusion 2),33.4,,,,66.7,30.2
"AAAACAAAAGGAUAUACAUGAGGAUCACCCAUGUGGCAUAAAAUCGCCGCUAAACCAUGUAGAAGGUUUGCGAA [EX3 A.6] (Eterna round: R97, puzzle: Exclusion 3)",,25.5,,19.6,,
"AAAACGGACCGAGGAUAUACACGAUAUCUUUGCGUAGAAGGCGGACCGGCGACUUGAGGAUCACCCAAGUGUCCUCUUUUGCGG [Mutated MS2 EX1.4] (Eterna round: R96, puzzle: Exclusion NG 1)",,323,110,175,,
"AAAACUCACGUAGGAUAUCAUUCCUUAAGGUAGUGAGAAGGACGUGACUACAUGUCCUUGAACAUGAGGAUCACCCAUGUAGGC [Cerama] (Eterna round: R96, puzzle: Exclusion NG 1)",,,36.5,,,
AAAAGAACAGGAUAUUCGGGAAAUAACAUGAGGAUCACCCAUGUUAACGCGGGUGAGAACGAAGAAGGGUUCUAAA [Atusceon] (puzzle: Exclusion 5),96.4,,,,114,93.1
AAAAGAAGUGUUAGGAUAUGUGGAAGUAGAAAGACACAGAAGGGACAUGAGGAUCACCCAUGUGGCCAAAGAAC [Vecedies] (puzzle: Brourd's mod of Exclusion 4),15.6,,,,17.3,15.5
AAAAGAUGAGGAUAUAUAUGGAAUCCAAGGCAUGUGCUCUCACAUGAGGAUCACCCAUGUAGAAGGCAUCUGCC [Laxetera] (puzzle: Exclusion 2),9.79,,,,,
"AAAAGGCGAGGAUAUACAUGAGGAUCACCCAUGUGAAAGAAAGAAAGAAAGAAGAAAGGUAGAAGGCGCAAAGA [Mine, also!] (puzzle: Exclusion 3)",42.6,,,,83.6,67
AAAAGGUCAGGAUAUCCAAGAAAAGAAAAGAAAAGAAAAGAGGAGAAGGGACAUGAGGAUCACCCAUGUAAAAG [Default title] (puzzle: Exclusion 4),42.7,,,,39,38
AAAAUGCAAGGAUAUCGCGAUAAAUACAUGAGGAUCACCCAUGUGAUUACGUGGGCACGGCGAGAAGGUGCUAAAA [Amadius] (puzzle: Exclusion 5),26.1,,,,119,33.8
"AAAAUUGUAGGAUAUUAGGCAGACAACAUGAGGAUCACCCAUGUCCGUGAUCUUAGGCACUGAGAAGGAUAAGCCU [Eternabot (Original) Solution 23] (Eterna round: R97, puzzle: Exclusion 5)",,147,,159,,
"AAACAAACGGGAGGAUAUCGACAUAUUCAACUGCGAGAAGGCCCAAAAGACAUGAGGAUCACCCAUGUAAACCGGGUGAGAAAU [Rimabi] (Eterna round: R96, puzzle: Exclusion NG 1)",,934,185,215,,
"AAACCCUGAGGAUAUACAUAACAACAAACCCUCACGUGCCAACAUGAGGAUCACCCAUGUAGAAGGCAGGCCAA [Mod R3 Insanara 6 - Jieux - Exclusion 2] (Eterna round: R97, puzzle: Exclusion 2)",,64.3,,18.7,,
AAACCGCAUGUCAGGAUAUCCAGUCCGACUAGCUAGGAGAAGGGACAUGAGGAUCACCCAUGUUUCAUGGCUCG [Anveonat] (puzzle: Brourd's mod of Exclusion 4),19.6,,,,37.6,19
"AAACCGGGCGCACCUCAGUCACAUGAGGAUCACCCAUGUUCUGAGGAUAUGCAUCCAAACGGAACGCAGAAGGCGGAACGUAAC [Bibidianer] (Eterna round: R96, puzzle: Exclusion NG 3)",,10.5,8.52,13,,
AAACCUAUAGGAUAUACAUGAGGAUCACCCAUGUUGCGAUUUUUUAGGUAACAGAUCCGUAGAAGGGUAGGGCA [Retebi] (puzzle: Exclusion 3),28.3,,,,,
AAACUAGUAGAGGAUAUUCCAGGCAGUGUUUGAGAAGAAGGCUACACAUGAGGAUCACCCAUGUGGCCUGGUGG [Riedbi] (puzzle: Exclusion 6),12.8,,,,,
AAAGAACAUGAGGAUCACCCAUGUGAGGAUAUGUAAGGAUAGGACCGAAGAAGCGAGAACAGAAGGCACAGAGG [JR_Exclu1_Sub069] (puzzle: Exclusion 1),23.4,,,,35,18.6
AAAGAGCGAGGAUAUACGUAUCGGUGCGGCCAGCCGAUGUGACAUGAGGAUCACCCAUGUAGAAGGCGCAGAAA [Excls2-IX] (puzzle: Exclusion 2),23.4,,,,,
"AAAGGACGAGGAUAUACAUGAGGAUCACCCAUGUAAAAAGCAUAAUAAAAUAACUUAUGUAGAAGGCGUCCAAA [Mat - Exclusion 3 - Eli mod - D91] (Eterna round: R96, puzzle: Exclusion 3)",,,18.5,,,
"AAAGUGUGAGGAUAUUAGUUGUACGUCAAUAGACGUAUAAGUGAGAAGGCACAUGAGGAUCACCCAUGUUCCUG [Omei Ex4 Mod of Mat's R95 mod of Omei v5] (Eterna round: R97, puzzle: Exclusion 4)",,99.7,,21.9,,
"AAAUAAAGGUAGGAUAUCGAUUUUAAUUAAUAUCGAGAAGGGUCAACAUGAGGAUCACCCAUGUCAGCAUGUAA [LRO-Excl6-01-Rocketman] (Eterna round: R97, puzzle: Exclusion 6)",,59.9,,64.2,,
"AAAUAACAAGCAAGAUCCUACAUGAGGAUCACCCAUGUGCUCGUCUUAAUAAGUACUAUCACGAAAGUGAUAGUACA [Mat - Sensor v3 - turn-off var 1 - Eli Mod - D60] (puzzle: Sensor v3, turn-off variant 1)",383,,,,383,437
"AAAUAGAAUGAGGAUAUCGAAUUAUAUAUAGUACGAGAAGGCAUUACAUGAGGAUCACCCAUGUUUUGUUGGGA [JR_Ex6_Sub001] (Eterna round: R97, puzzle: Exclusion 6)",,73,,27.6,,
